# Assay: soluble on expression in E. coli; label from the status in PepcDB or PDB records
row,Sequence,soluble on expression in E. coli
1,MGSDKIHHHHHHMKLPRFGVEEWLNVHEKNATYDIAGVSIAALSLEELFQLTQQDLNAFFQELGQKKMDYGWIEGSPQFKAEVCKLYKNIQAEQVLQTNGATGANMLALYALIEPEDHVISMYPTYQQLYDIPKSLGAQVDLWQIKEDSKWLPDLDELRQLIRPNTKMICINNAHNPTGAIMDEAYLKELVAIVESCGAYILSDEVYKTFASDKNIPAIVDLYDKGISVDSLSKAYSLPGIRVGWVASNKKVTAVLRDYRDYTMICAGVFDDMLASFALKHRQAIIQRNQEIVVDNLQILQDWLAKEPRAQAILPDHVSTSLIKLNVPMLIETFCLKLLSDYGVLVVPGNRFDIEGHVRLGYCGDTEILKAGLTRLSQCLRQFDEQAKIT,not soluble
2,KLDKAYLNNDADKITYMPTWRPWEESEIINGNIKKTTYYKSILDVIKAFEKENMLNRLQIAAHNKFSQYMKNNFDKYQNIFIEDPTDTLTNSIIYITDISSIILDAAYRGAYPIFYWKEFDYIIEKHGGTSPVNPENAPGDVVYSEQDLVNIVKYIIRNDYKIPSRIKENYKKLNEFNDNQNTQRVVDILIEDNII,not soluble
3,MTKPLVIFGSGDIAQLAHYYFTRDSEYEVVAFTVDRDYASVSEFCGLPLVAFDEVAQRFPPESHAMFVALAYAKLNGVRKEKYLAAKALGYELASYVSSHATVLNDGRIGENVFLLEDNTIQPFVSIGNNVTLWSGNHIGHHSTIHDHCFLASHIVVSGGVVIEEQSFIGVNATLRDHITIGSRCVVGAGALEHHHHHH,not soluble
4,MVHSTDSFDFLGWNFVVKPNGKFISTPSQKATSSIKAKVKEVMKDSCFTLEERIDKCGAIVRGWRNYHRFCDMSQHNLWAIAYWTWKFIRKQGRYNRDQTNQVIHRAFPAVKWAACRFNNVTEDKSPLEHHHHHH,not soluble
5,DKEVVVLGSGDPMFHGIGSTLHRLLPNHSMTVIPQPSSASLACARLGWALDTTSVYSLVTHPIAHLTLAIEQGDRFLVLGRNHESPHEICEHLISLGQSTAEVTVLSDIGSVSETITSGAATDYPSNDSALNVIAIRPLAATRSRVPGLPDSEYVTDGQLTKQHVRALAISALAPKPHETLWDIGGGSGSIAIEWLRSTPQTTAVCFEISEERRERILSNAINLGVSDRIAVQQGAPRAFDDVPDNPD,not soluble
6,MGSDKIHHHHHHMPLSIITNTFAGNPLDRDSERRGDEAFLAEKLADPESLAVALWNGKPLVEDILGEDGKPTGVQIAYLRADMAQDLAGGSEKLLYMGLWKDIAVFAVDIEGAADPAEGPLQGLGRFEELRGAAASMPPADAGILATAKSMFEWRRRHRWCSACGQKTEVSDGGWKRVCPSCEAEHFPRTDPVAIMLAIHDGKCLLGRQAMWPQGMFSALAGFIEPGETIEEACARELQEEAGLKATAVRYHSSQPWPWPSSLMMGLIAEVDSDEAAPDQTELEEVRWFTREEALQLIRGELDGLFAPPPLAIAHQLIKAWAEEA,not soluble
7,GPGSMSYHGPNREGLGEDLEEAEEAFIDLEDPNIEILDEAALPEEDGDDASDVVDNHAGMDVQDRGNEEEGEGLHLGVEVEDLNAAPDYEPEHDDAFATFVAPAKKPLHAIAVHPQNERIFAVGGEGEEVYILEMDHAGKEPALKATLTGHTDTVSLLSFSPNGQWLASGSLDSSVAVWSTETWERKHTLGDLYGEIMTLLWHPSSLILAAGADDAQAAMWNVVKGTLIMYFVGHRGAVTCTAWSPDVKKLVTGSSDGTVAVFNPKTGDQELCISKDLSPDNAGITALQFVNADQCVVGCEDGTLHVISLRSGKVATHFEDLHEQAIESLAINRSSLLLLTASCDCRVIVWNVADFSPRATVEVGESVIPALWSHSNLIAAGCSDGNIRVWDGRSSAQDPLALLMGHRRMVLGLVTTSTVLASTSDDGTAKFYRFAETFR,soluble
8,MSLTDNLQDLISTKLAAAIANPLFPAVDSQLRAGRHISLDQLDNHAFLMDFQGELDSFYRRYNVELIRAPEGFFYLRPKATTLIARSVLTELEMLVGKVLCYLYLSPERLAQQGIFSTQEVYDELLNLADENKLLKAVNQRSSGSDLDKQKLAEKVRAALNRLRRLGMIHGVGEQNSGKFTIAEAVFRFGAEVRAGDDPREAQLRPIRDGRPATPGFWAAGKTRSATGGEHRDEGGDEGGDEERAEGHHHHHH,soluble
9,GHMDIAEPAELDADELKRVLEALLLVIDTPVTADALAAATEQPVYRVAAKLQLMADELTGRDSGIDLRHTSEGWRMYTRARFAPYVEKLLLDGARTKLTRAALETLAVVAYRQPVTRARVSAVRGVNVDAVMRTLLARGLITEVGTDADTGAVTFATTELFLERLGLTSLSELPDIAPLLPDVDTIDDLSESLDSEPRFIKLTGELASEQTLSFDVDRD,soluble
10,KMPLTIYSADGEVIGMYGEQRREFTKIGDFPEVLRNAVIAAEDKRFYRHWGVDVWGVARAAVGNVVSGSVQSGASTITQQVAKNFYLSSEKTFTRKFNEVLLAYKIEQSLSKDKILELYFNQIYLGQRAYGFASAAQIYFNKNVRDLTLAEAAMLAGLPKAPSAY,not soluble
11,GSSHHHHHHMGNVFDYEDIQLIPAKCIVNSRSECDTTVTLGKHKFKLPVVPANMQTIIDERIATYLAENNYFYIMHRFQPEKRISFIRDMQSRGLIASISVGVKEDEYEFVQQLAAEHLTPEYITIDIAHGHSNAVINMIQHIKKHLPESFVIAGNVGTPEAVRELENAGADATKVGIGPGKVCITKIKTGFGTGGWQLAALRWCAKAASKPIIADGGIRTNGDVAKSIRFGATMVMIGSLFAGHEESPGETIEKDGKLYKEYFGSASEFQKGEKKNVEGKKMFVEHKGSLEDTLIEMEQDLQSSISYAGGTKLDSIRTVDYVVVKNSIFNGDKVY,soluble
12,MSLQPALGVLVASSQPLDQYVVRHPDFFADASPEHARTAPDQPLILFDHIRCAAFELPFIASEPFGPIDPLVFLEVLAESEVIHQEGDRWEWIADSYPATAVSLRSVADGNFVVVDKSDGKQQIIAEVDYSAAALTLYEGAIHMVQSRPYQVERLDWAGRKAYVTRTHVDYYTDSIDYTKLKVLDRFDGGVAGRGDSHHGEVHVVRRVSGYKKIRYYTHENIGYGPVNLPDQELHTTAVWWQLPQATLGKAFEGHHHHHH,soluble
13,MKRVAAVIEYDGSNFFGYQGQPDVRTVQGVIEDALERIFKQRIYTQAAGRTDTGVHANGQLIAFNCPNDRMTTEDIRNAMNANLPDDVYVKEVFEVPVNFHPRFDVTKRIYHYFILTSRQKNVFLRKYVWWFPYELDLDAMRKAVKYLEGTHDFTSFKTGSDERDPVRTIYRIRILRLKNDLVLIRVEGRSFLRRMVRNIVAALVKVGLKQWEPEKMKEVLEARDRSAAAGTAPAHGLYFYKVLF,soluble
14,MKNKLFASALCAAALFTTNAMAKDQELYFYNWSEYIPSEVLEDFTKETGIKVIYSTYESNESMYAKLKTQGAGYDLVVPSTYFVSKMRKEGMLQEIDHSKLSHFKDLDPNYLNKPFDPGNKFSIPYIWGATGIGINTDMLDKKSLKNWGDLWDAKWAGQLMLMDDAREVFHIALSKLGYSPNTTNPKEIKAAYRELKKLMPNVLVFNSDFPANPYLAGEVSLGMLWNGSAYMARQEGAPIQIIWPEKGTIFWMDSISIPAGAKNIEAAHKMIDFLLRPENAAKIALEIGYPTPVKTAHDLLPKEFANDPSIYPPQSVIDNGEWQDEVGEASVLYDEYFQKLKVND,soluble
15,MGSDKIHHHHHHMATPADKLAESLAVLKTLRDQGRKALRSEDMGRTHRERLMRNGFIKEVMKGWYIPSRPDEPAGESTSWYASFWVFCASYLESRFGDEWCVSPEQSIHLHTGNWSVPKQLLIRSPKGGNKPTGLLHGTSILDVRLELPPASDTEIKEGMRIYNLPAALVGCSQTQFSAHPTEMRTALTMMQDASELLGRLLAGGHSKIAGWLAGACRSIGRKQIADDILGAMRAAGYTVNENNPFKDQAQIIFSPRETSPYVNRMRMNWASMREDVLHSFPAAPGLPADSAKYLKQVEAVYVNDAYNSLSIEGYKVSAALIEKVRSGNWNPDSNKDDQDHRNALAARGYWQAFQKVRESIGKVLSQENAGTVAESDHAQWYRELFGPSVTAGILKAADLAGYRNSPVYIRRSMHTPPGKEAVRELMPVLFELLQQENEAAVRVVLGHFMFVYIHPYIDGNGRIGRFLMNLMSASGGYSWIVIPLEQRNDYMAALESASVEGDIKPFSTLLANLVSTG,not soluble
16,MTSSATSPTNGVDKNKNEEMVATPANCPYQLFNQEVVWNGKWIQTRQVGFKTHTGQVGVWQSVHRNTKPVEASADGVSIIARVRKQGKLYIVLVKQYRIPCGKLCLELPAGLIDAGETAQQAAIRELKEETGYVSGKVVMESKLCFLDPGLTDDSQCLVVVDVDGDAPENQNPVQVLDSTESIEVLLVEQSALMAYVTNLDSSSIVVESTLLAYAMGIQFATI,not soluble
17,MKTLYDKLWSDHVVHAESDDPNGMVILYIDRHLVHEVTSPQAFESLKLAGRKPWRTGSILAVADHNVPTTDRSSGISDPVSRLQVETLDQNCEEFAITEFRMNDERQGIVHVIGPEQGATLPGMTVVCGDSHTSTHGAFACLAFGIGTSEVEHVLATQCLVARKSKTMLVRVEGDLPPGVTAKDIALAVIGEIGTAGGTGYAIEFAGSAIRSLSMEGRMTLCNMAIEAGARAGMVGADEVTIDYIKGRPFAPQGALWDQAVAYWRTLKSDEDAVFDRMVELKAVNIKPQVTWGTSPEMVTTVDGYVPDPADISDPTKRHDVEHALGYMGLKPKMPIQEITLDKVFIGSCTNSRIEDLRAAAEIVKGKRIAPNIRLAMVVPGSGLVKSMAEKEGLDKIFLSAGFEWREPGCSMCLAMNDDRLLPGERCASTSNRNFEGRQGPGGRTHLVSPAMAAAAAIAGHFVDVRSFIR,not soluble
18,MSERESLSGADNAWRRMGTPTNLMTITGVMMFDERMTYEDLCNRLEERLLRFERFQQRIGGRKRRFRQPYWETVDGFDVEPHVYHISLPEPQDKATFEAFVGKLMSRPLDESRPLWEAYLVDGAGPGEGNAVAFRLNHSIGDGFALLYVLLGLVDNPGDIELPSGMVSAPDDIGDDADSGADGGNGSDESDVASGDGQPADTDSKSDGERGSSGLPSPVSAAGTAATGVATGYDLLFGDDDPDTSLRGELGQTKRAAWTDEIPLEQVRTVCEAQPHRATINDVLLAALAGALRRLLEDRGEPVDGMELHGTVPVNLKPMAERDGSLGNNFGLVFLPLPVGTEPLQERISIIHEWMDGKRAGIQAFLMYALLTIGGHVPEYVQKKVMTLFEDRATGVVTNVPGPTDAIQFAGREITDMIFWVPQANEQGIGISIFSYDGNVRVGVAADENLLGAPGELAAAFEAEMEALLEDAELEHHHHHH,soluble
19,SMVSPEEAVKWGESFDKLLSHRDGLEAFTRFLKTEFSEENIEFWIACEDFKKSKGPQQIHLKAKAIYEKFIQTDAPKEVNLDFHTKEVITNSITQPTLHSFDAAQSRVYQLMEQDSYTRFLKSDIYLDLMEGRPQRPTNLRRRSRSFTCNE,soluble
20,MADDEDDIVWIREDTAQSSVPTSPTTPATIIEAAPVLSDAFDKPILKSVETISVSNGPPEVTISAPPPTPPAAPLAPQITPMVLSTVPDAAPAQDIPALILAALAPEPVPEPEPEVEAKQNVIVEKENEIKDQQQNDQLSAKLDPKTPNSVDDNSMSFDISECERKFNTAIREANDILEDFDKKSKQVAENTKFVAKELAELAADAPRVFQKTIEDHSQVPEISELPSGGLPKNVESVLIGEGILEEITGTLVLPTGQVLVTDERVGILLFNLEGDVLAKINPADFRKLWSPVYHKEHILVLADAKNAENHWSRHVIKFTCQLEYVAKIECPSWLAECTILRERLSIAHNDHLYLCVCGEIFSGIYELTPIGQWTELEYKLSEAYIDMLAFATIGPITQLLVVEGRRNYVLLVSVRESRIVDRKRMAICERPGALAKDEAGRLFVSNRFSASIQLVDTMRWVSEKNVAITEAFVRHFTACWGLLAIPLKNAVRLQRYSFRSLR,not soluble

# Source: the DeepSol protein solubility set
